Laboratory results: patent US20240343811A1 (SHANDONG SIMCERE BIOPHARMACUTICAL, published 2024)

T1: Human CD16b (NA1)-his (human)
T1 construct: entry holds ECD, linker, His tag and AVI tag
T1 chain: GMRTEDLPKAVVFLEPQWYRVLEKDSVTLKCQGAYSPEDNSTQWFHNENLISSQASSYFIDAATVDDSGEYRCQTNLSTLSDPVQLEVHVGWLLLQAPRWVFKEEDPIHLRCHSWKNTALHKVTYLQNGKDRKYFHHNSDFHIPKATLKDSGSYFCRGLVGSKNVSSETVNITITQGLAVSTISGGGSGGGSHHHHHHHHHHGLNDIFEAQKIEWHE

T2: human CD16b (NA1), full length, on FlpinCHO cells (human, UniProt O75015 17-200)
T2 construct: also called FlpinCHO-human CD16b (NA1)
T2 chain: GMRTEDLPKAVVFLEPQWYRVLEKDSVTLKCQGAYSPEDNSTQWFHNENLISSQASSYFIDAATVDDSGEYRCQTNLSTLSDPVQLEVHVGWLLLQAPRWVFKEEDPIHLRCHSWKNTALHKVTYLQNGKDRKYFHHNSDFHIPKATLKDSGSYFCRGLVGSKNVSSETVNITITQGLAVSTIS

T3: human CD16b (NA2), full length, on FlpinCHO cells (human, UniProt O75015 17-200)
T3 construct: also called FlpinCHO-human CD16b (NA2)
T3 chain: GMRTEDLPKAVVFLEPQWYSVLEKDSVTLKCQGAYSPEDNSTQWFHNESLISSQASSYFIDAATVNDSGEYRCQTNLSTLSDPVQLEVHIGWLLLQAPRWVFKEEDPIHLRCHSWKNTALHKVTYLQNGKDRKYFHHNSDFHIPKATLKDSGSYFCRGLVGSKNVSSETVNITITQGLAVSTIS


Columns and labels:
[1] = molecular target: T4, CD16 on primary human NK cells (human, UniProt P08637 17-254); assay: FACS on human NK cells, biotinylated antibody, +10 mg/mL human immunoglobulin
T4 construct: whole, on cells; also called resting NK cells

[2] = molecular target: T4, CD16 on primary human NK cells; assay: FACS on human NK cells
Procedure, shortened: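 EC50 came from curve fitting of flow-cytometric MFI. Antibody titrations were bound for 1 hour on ice to fresh human NK cells blocked in PBS with 2% (w/w) BSA (2×10⁶ cells/ml), followed by five PBS washes before acquisition.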

[3] = molecular target: human CD16a (158F), full length, on FlpinCHO cells (human, UniProt P08637 17-254); assay: FACS on FlpinCHO cells
Procedure, shortened: (§1)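 EC50 comes from fitted concentration–MFI curves. Antibody dilutions were bound to the cells for 1 hour on ice in PBS blocking buffer with 2% BSA, followed by washing and flow cytometric readout.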

[4] = molecular target: T5, human CD16a (158V), full length, on cells (human, UniProt P08637 17-254); assay: FACS on FlpinCHO cells
T5 construct: also used as target for the bought Jurkat-NFAT reporter line stably expressing human CD16a (158V); also called FlpinCHO-human CD16a (158V); FlpinCHO-CD16a (158V)
Procedure, shortened: as §1

[5] = molecular target: T6, Human CD16a (158V)-his (human); assay: SPR (Biacore), antibody captured on Protein A
T6 construct: entry holds ECD, AVI tag, linker and His tag
Procedure, shortened: (§2)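 Protein A–captured antibody was probed with CD16-his ECD in HBS-EP+ at 25 °C: five 2-fold dilutions from 200 nM, 240 s at 30 μL/min, dissociation up to 600 s. Glycine pH 1.5 regenerated the chip. Apparent KD came from a double-referenced 1:1 Langmuir fit.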

[6] = molecular target: T7, Human CD16a (158F)-his (human); assay: SPR (Biacore), antibody captured on Protein A
T7 construct: entry holds ECD, AVI tag, linker and His tag
Procedure, shortened: as §2

[7] = molecular target: T1, Human CD16b (NA1)-his; assay: SPR (Biacore), antibody captured on Protein A
Procedure, shortened: as §2

[8] = molecular target: T2, human CD16b (NA1), full length, on …; assay: FACS on FlpinCHO cells
Procedure, shortened: (§3)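 EC50 values come from fitted MFI curves measured by FACS. Antibody dilutions were bound for 1 hour on ice to CD16b-transfected FlpinCHO cells suspended in PBS with 2% BSA blocking solution.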

[9] = molecular target: T3, human CD16b (NA2), full length, on …; assay: FACS on FlpinCHO cells
Procedure, shortened: as §3

[10] = molecular target: T4, CD16 on primary human NK cells; assay: FACS on human NK cells, biotinylated antibody

Row | Binder | EC50 [1] [nM] | Maximum mean fluorescence intensity [1] | EC50 [2] [nM] | Maximum mean fluorescence intensity [2] | EC50 [3] [nM] | Maximum mean fluorescence intensity [3] | EC50 [4] [nM] | Maximum mean fluorescence intensity [4] | Kd [5] [nM] | koff [5] [s⁻¹] | kon [5] [M⁻¹ s⁻¹] | Kd [6] [nM] | koff [6] [s⁻¹] | kon [6] [M⁻¹ s⁻¹] | Kd [7] [nM] | koff [7] [s⁻¹] | kon [7] [M⁻¹ s⁻¹] | EC50 [8] [nM] | Maximum mean fluorescence intensity [8] | Maximum mean fluorescence intensity [9] | further results
1 | VHH06 VHH-Fc antibody (Fc fusion) EVQLVESGGGLVQAGGSLRLSCVASGSTWTTYAVRWYRQAPGKQREWVAFISVDGSTNYPDSVKGRFIVSRDNAKNTVYLQMNSLKPEDTADYICRVGGQYWGQGTQVTVSSEPKSSDKTHTCPPCPAPEFEGGPSVFLFPPKPKDTLMISRTPEVTCVVVAVSHEDPEVKFNWYVDGVEVHNAKTKPREEQYNSTYRVVSVLTVLHQDWLNGKEYKCKVSNKALPAPIEKTISKAKGQPREPQVYTLPPSREEMTKNQVSLTCLVKGFYPSDIAVEWESNGQPENNYKTTPPVLDSDGSFFLYSKLTVDKSRWQQGNVFSCSVMHEALHNHYTQKSLSLSPGK | 3.9 | 80000 | 0.54 | 2600 | 0.58 | 7070 | 0.66 | 8110 | 1.96 | 0.000213 | 109000 | 5.84 | 0.000374 | 64000 | 8.63 | 0.00113 | 130000 | 1.41 | 33300 | 1930 | binding result [9]: no binding (tested: 100 nM); EC50 [10]: 1.42 nM; Maximum mean fluorescence intensity [10]: 69600
2 | VHH11 VHH-Fc antibody (Fc fusion) EVQVVESGGGLAQAGGSLRLSCAVSGITFSSYAMGWYRQDPGKQRELVAAINRFGLTNYADSVKGRFTISRDNAKNTVYLQMTSLKPEDTAVYYCNTGGVYSHPNYYTGTYWGQGTQVTVSSEPKSSDKTHTCPPCPAPEFEGGPSVFLFPPKPKDTLMISRTPEVTCVVVAVSHEDPEVKFNWYVDGVEVHNAKTKPREEQYNSTYRVVSVLTVLHQDWLNGKEYKCKVSNKALPAPIEKTISKAKGQPREPQVYTLPPSREEMTKNQVSLTCLVKGFYPSDIAVEWESNGQPENNYKTTPPVLDSDGSFFLYSKLTVDKSRWQQGNVFSCSVMHEALHNHYTQKSLSLSPGK | 2.31 | 62300 | 0.33 | 2660 | 0.28 | 5670 | 0.33 | 6240 | 32 | 0.0491 | 1.53e+06 | 42.9 | 0.0235 | 548000 | 6010 | 0.259 | 43100 | 1.03 | 37900 | 56900 | EC50 [9]: 1.43 nM; EC50 [10]: 0.95 nM; Maximum mean fluorescence intensity [10]: 60700
3 | VHH12 VHH-Fc antibody (Fc fusion) QVQLVESGGGLVQAGGSLRLSCAASGITFSSYAMGWYRQAPGKQRELVAAINRFGLTNYADFVKGRFTISRVNAKNTVYLQMTSLKPEDTAVYYCNTGGVYSHPDYYTGTYWGQGTQVTVSSEPKSSDKTHTCPPCPAPEFEGGPSVFLFPPKPKDTLMISRTPEVTCVVVAVSHEDPEVKFNWYVDGVEVHNAKTKPREEQYNSTYRVVSVLTVLHQDWLNGKEYKCKVSNKALPAPIEKTISKAKGQPREPQVYTLPPSREEMTKNQVSLTCLVKGFYPSDIAVEWESNGQPENNYKTTPPVLDSDGSFFLYSKLTVDKSRWQQGNVFSCSVMHEALHNHYTQKSLSLSPGK | 1.82 | 48900 | 0.21 | 2680 | 0.16 | 6090 | 0.21 | 6680 | 10.8 | 0.0201 | 1.86e+06 | 13.3 | 0.0117 | 878000 | 1500 | 0.154 | 103000 | 0.62 | 58100 | 79100 | EC50 [9]: 0.96 nM; EC50 [10]: 0.4 nM; Maximum mean fluorescence intensity [10]: 46500
